Laboratory results: patent US20240132578A1

How the values were obtained:
[1] = target: HIV-1 92BR020 Env (HIV-1); test: cell-based or functional assay
[2] = target: HIV-1 Env of isolate MG RM-A-005 (pseudovirus) (HIV-1); test: cell-based or functional assay
[3] = target: HIV-1 Env of isolate MGRM-G-009 (subtype G) (HIV-1); test: cell-based or functional assay
[4] = target: HIV-1 Env of isolate MGRM-G-019 (subtype G) (HIV-1); test: cell-based or functional assay
[5] = target: HIV-1 Env of pseudovirus MGRM-D-016 (HIV-1); test: cell-based or functional assay
[6] = target: HIV-1 Env of pseudovirus MGRM-D-026 (HIV-1); test: cell-based or functional assay
[7] = target: HIV-1 Env of pseudovirus MGRM-F1-004 (HIV-1); test: cell-based or functional assay
[8] = target: HIV-1 Env of pseudovirus MGRM-F1-017 (HIV-1); test: cell-based or functional assay
[9] = target: HIV-1 envelope glycoprotein (Env) of isolate MG RM-AG-013 (HIV-1); test: cell-based or functional assay
[10] = target: HIV-1 Env of isolate MGRM-A-010 (subtype A) (HIV-1); test: cell-based or functional assay
[11] = target: HIV-1 Env of isolate MGRM-A-012 (subtype A) (HIV-1); test: cell-based or functional assay
[12] = target: HIV-1 Env of isolate MGRM-AG-002 (subtype AG) (HIV-1); test: cell-based or functional assay
[13] = target: HIV-1 Env of isolate MGRM-D-014 (pseudovirus) (HIV-1); test: cell-based or functional assay
[14] = target: HIV-1 Env of isolate MGRM-D-016 (pseudovirus) (HIV-1); test: cell-based or functional assay
[15] = target: HIV-1 Env of isolate MGRM-D-024 (HIV-1); test: cell-based or functional assay
[16] = target: HIV-1 Env of isolate MGRM-F1-023 (HIV-1); test: cell-based or functional assay
[17] = target: HIV-1 Env of pseudovirus isolate MGRM-C-009 (clade C) (HIV-1); test: cell-based or functional assay
[18] = target: HIV-1 Env of pseudovirus isolate MGRM-C-013 (clade C) (HIV-1); test: cell-based or functional assay
[19] = target: HIV-1 Env of pseudovirus isolate MGRM-C-015 (clade C) (HIV-1); test: cell-based or functional assay
[20] = target: HIV-1 Env of pseudovirus isolate MGRM-C-019 (clade C) (HIV-1); test: cell-based or functional assay
[21] = target: HIV-1 JR-CSF Env I415A (HIV-1 (isolate JR-CSF)) (UniProt P20871); test: cell-based or functional assay
[22] = target: HIV-1 JR-CSF Env I420A (HIV-1 (isolate JR-CSF)) (UniProt P20871); test: cell-based or functional assay
[23] = target: HIV-1 JR-CSF Env T413A (HIV-1 (isolate JR-CSF)) (UniProt P20871); test: cell-based or functional assay
[24] = target: HIV-1 MGRM-D-001 envelope protein (Env) on pseudovirus (HIV-1); test: cell-based or functional assay
[25] = target: JR-FL gp120 ΔV1/ΔV2 (HIV-1 JR-FL); test: ELISA, antigen-coated wells, mAb titrated; EC50 by nonlinear regression
[26] = target: HIV-1 Env of isolate MGRM-AG-005 (pseudovirus) (HIV-1); test: cell-based or functional assay
[27] = target: HIV-1 Env of isolate MGRM-AG-011 (pseudovirus) (HIV-1); test: cell-based or functional assay
[28] = target: HIV-1 JR-CSF Env N301A (HIV-1 (isolate JR-CSF, clade B)) (UniProt P20871); test: cell-based or functional assay
[29] = target: HIV-1 JR-CSF Env P313A (HIV-1 (isolate JR-CSF, clade B)) (UniProt P20871); test: cell-based or functional assay

## 4995_E20 (PGT-142) (antibody)
[1]
  IC50, pseudovirus neutralization: > 10 µg/mL
[2]
  IC50 (µg/mL), single-round pseudovirus neutralization: 9.7 µg/mL
[3]
  IC50 (µg/mL), pseudovirus neutralization: 2.81 µg/mL
[4]
  IC50 (µg/mL), pseudovirus neutralization: 5.95 µg/mL

## VRC01 (antibody)
[2]
  IC50 (µg/mL), single-round pseudovirus neutralization: 0.095 µg/mL
[3]
  IC50 (µg/mL), pseudovirus neutralization: 0.073 µg/mL
[4]
  IC50 (µg/mL), pseudovirus neutralization: 0.06 µg/mL
[5]
  IC50, pseudovirus neutralization: 0.452 µg/mL
[6]
  IC50, pseudovirus neutralization: 0.435 µg/mL
[7]
  IC50, pseudovirus neutralization: 0.305 µg/mL
[8]
  IC50, pseudovirus neutralization: 1.08 µg/mL
[9]
  IC50: 0.197 µg/mL

## 5343_B08 (PGT-135) (antibody)
[1]
  IC50, pseudovirus neutralization: 0.104 µg/mL
[10]
  IC50, pseudovirus neutralization: > 50 µg/mL
[11]
  IC50, pseudovirus neutralization: > 50 µg/mL
[12]
  IC50, pseudovirus neutralization: > 50 µg/mL
[13]
  IC50 (µg/mL), pseudovirus neutralization: 2.21 µg/mL
[14]
  IC50 (µg/mL), pseudovirus neutralization: > 50 µg/mL
[15]
  IC50 (µg/mL), pseudovirus neutralization: > 50 µg/mL
[16]
  IC50 (µg/mL), pseudovirus neutralization: 0.088 µg/mL
[17]
  IC50, pseudovirus neutralization: > 50 µg/mL
[18]
  IC50, pseudovirus neutralization: > 50 µg/mL
[19]
  IC50, pseudovirus neutralization: 0.104 µg/mL
[20]
  IC50, pseudovirus neutralization: 0.264 µg/mL
[21]
  Fold IC50 increase relative to wild-type (pseudovirus neutralization): 5 fold
[22]
  Fold IC50 increase relative to wild-type (pseudovirus neutralization): 1.4 fold
[23]
  Fold IC50 increase relative to wild-type (pseudovirus neutralization): 0.3 fold
[24]
  IC50 (ug/mL), pseudovirus neutralization: > 10 µg/mL
[25]
  EC50: 0.1 µg/mL

## 4995_P16 (PGT-145) (antibody)
[2]
  IC50 (µg/mL), single-round pseudovirus neutralization: 0.128 µg/mL
[3]
  IC50 (µg/mL), pseudovirus neutralization: 0.982 µg/mL
[4]
  IC50 (µg/mL), pseudovirus neutralization: 0.041 µg/mL

## 4980_N08 (PGT-143) (antibody)
[1]
  IC50, pseudovirus neutralization: > 10 µg/mL
[2]
  IC50 (µg/mL), single-round pseudovirus neutralization: 7.48 µg/mL
[3]
  IC50 (µg/mL), pseudovirus neutralization: 2.97 µg/mL
[4]
  IC50 (µg/mL), pseudovirus neutralization: 4.77 µg/mL

## PGV04 (antibody)
[26]
  IC50 (µg/mL), pseudovirus neutralization: 0.027 µg/mL
[27]
  IC50 (µg/mL), pseudovirus neutralization: 0.071 µg/mL
[16]
  IC50 (µg/mL), pseudovirus neutralization: 0.171 µg/mL
[3]
  IC50 (µg/mL), pseudovirus neutralization: 0.043 µg/mL
[4]
  IC50 (µg/mL), pseudovirus neutralization: 0.027 µg/mL

## 5136_H01 (PGT-131) (antibody)
[10]
  IC50, pseudovirus neutralization: 0.01 µg/mL
[11]
  IC50, pseudovirus neutralization: > 50 µg/mL
[12]
  IC50, pseudovirus neutralization: > 50 µg/mL
[13]
  IC50 (µg/mL), pseudovirus neutralization: 0.516 µg/mL
[14]
  IC50 (µg/mL), pseudovirus neutralization: > 50 µg/mL
[15]
  IC50 (µg/mL), pseudovirus neutralization: > 50 µg/mL
[16]
  IC50 (µg/mL), pseudovirus neutralization: > 50 µg/mL
[17]
  IC50, pseudovirus neutralization: > 50 µg/mL
[18]
  IC50, pseudovirus neutralization: > 50 µg/mL
[19]
  IC50, pseudovirus neutralization: 1.01 µg/mL
[20]
  IC50, pseudovirus neutralization: 0.021 µg/mL
[21]
  Fold IC50 increase relative to wild-type (pseudovirus neutralization): 0.6 fold
[22]
  Fold IC50 increase relative to wild-type (pseudovirus neutralization): 153 fold
[28]
  Fold IC50 increase relative to wild-type: > 170 fold
[29]
  Fold IC50 increase relative to wild-type: 0.52 fold
[23]
  Fold IC50 increase relative to wild-type (pseudovirus neutralization): 0.6 fold

## 4993_K13 (PGT-141) (antibody)
[1]
  IC50, pseudovirus neutralization: > 10 µg/mL
[2]
  IC50 (µg/mL), single-round pseudovirus neutralization: 11.1 µg/mL
[3]
  IC50 (µg/mL), pseudovirus neutralization: 1.89 µg/mL
[4]
  IC50 (µg/mL), pseudovirus neutralization: 20.3 µg/mL

## 5345_I01 (PGT-137) (antibody)
[10]
  IC50, pseudovirus neutralization: > 50 µg/mL
[11]
  IC50, pseudovirus neutralization: > 50 µg/mL
[12]
  IC50, pseudovirus neutralization: > 50 µg/mL
[13]
  IC50 (µg/mL), pseudovirus neutralization: > 50 µg/mL
[14]
  IC50 (µg/mL), pseudovirus neutralization: > 50 µg/mL
[15]
  IC50 (µg/mL), pseudovirus neutralization: > 50 µg/mL
[16]
  IC50 (µg/mL), pseudovirus neutralization: > 50 µg/mL
[17]
  IC50, pseudovirus neutralization: > 50 µg/mL
[18]
  IC50, pseudovirus neutralization: > 50 µg/mL
[19]
  IC50, pseudovirus neutralization: 1.98 µg/mL
[20]
  IC50, pseudovirus neutralization: > 50 µg/mL
[25]
  EC50: 0.2 µg/mL

## PGT-145 (4995_P16) (antibody)
[5]
  IC50, pseudovirus neutralization: > 50 µg/mL
[6]
  IC50, pseudovirus neutralization: 0.41 µg/mL
[7]
  IC50, pseudovirus neutralization: 0.361 µg/mL
[8]
  IC50, pseudovirus neutralization: 0.286 µg/mL
[9]
  IC50: 14.4 µg/mL
